{"source": "paper PMC8816746", "about": "“Genetic tools for the redirection of the central carbon flow towards the production of lactate in the human gut bacterium Phocaeicola (Bacteroides) vulgatus” (Applied Microbiology and Biotechnology, 2022)", "proteins": {"B1": {"name": "D-LDH (BVU_2499) (Phocaeicola vulgatus ATCC 8482) (protein)", "chain": "AYKIAFYDTKPYDERSFTEANEKFGFDIRYYKGHLNMNNVVLTKGVDVVCIFVNDTADAEVIRAMADNGVKLLALRCAGYNNVDLAATAGKMKVVRVPAYSPYAVAEFTVALMLSLNRKIPRATMRTRDGNFSLHGLMGFDMHGKTAGIIGTGKIAKILIQILRGFGMNVLAYDLYPDYNFAREHQVVYCTLDELYHSSDIISLHCPLTEQTKYLINDYSISKMKDGVMIINTGRGQLIHTNALIEGLKTKKVGYAGLDVYEEEEPYFYEDKSDKIIDDDTLARLLSFNNVIVTSHQAFFTKEAMTNIAHTTLQNVKDFAESRSLVNEVAVGRV", "notes": "full-length ldh in pASK-IBA5, N-terminal Strep-tag kept (no cleavage told), E. coli DH5alpha, Strep-Tactin purified"}}, "substrate": "CC(=O)C(=O)O", "test": "purified protein", "assay_type": "biochemical, Phocaeicola vulgatus", "settings": "250 μM NADH, 100 mM K-phosphate pH 7, 37 °C", "data": [{"protein": "B1", "values": [{"measurement": "Km", "result": "1400 ± 100", "unit": "µM"}]}]}
